Reference: the RNAGym collection of RNA variant scans (doi:10.1073/pnas.2313332121)

B1: TPR t1 (parent)
chain: GACCAAUCUGCCCUCAGAGCUCGAGAACAUCUUCGGAUGCAGAGGAGGCAGGCUUCGGUGGCGCGAUAGCGCCAACGUCCUCAACCUCCAAUGCAUCCCACCACAUGAUGAUGCCUGAAGAGCCUUGGUUUUUUG

Variants of: B1
Experiment: polymerase ribozyme fitness, log enrichment relative to wild type (log ratio); higher = more active; in vitro selection for triplet polymerase activity
Method in brief: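 In triplicate, a single round of in vitro selection was run on each mutant library, PCR-built and transcribed, covering one subunit of a heterodimeric triplet polymerase ribozyme. Frozen incubation at −7 °C followed annealing with a biotinylated primer, partner subunit and triplets, and extended constructs were then gel-excised, streptavidin-captured and taken through RT-PCR. Fitness is the logarithm of genotype enrichment over wild-type enrichment, from inverse-variance-weighted replicate averages of Illumina-sequenced inputs and outputs. […] only genotypes with ≥10 input reads and ≥1 read per output were kept.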

Variant	polymerase ribozyme fitness (log ratio)
GACCAAUCUGCCCUCAGAGCUCGAGGACAUCUUCGGAUGCAGAGGAGGCAGGCUUCGGUGGUGCGAUAGCGCCAACGUCGUCAACCUCCAAUGCAUCCCACCACAUGAUCAUGCCUGAAGAGCCUUGGUUUUUUG	-7.8
GACCAAUCUGCCCUCAGAGCUCGAGCACAUCUUCGGAUGCAGAGGAGGCAGGCUUCGGUGGCGCGAUAUCGCCAACGUCCUCAACCUCCAAUGCAUCCCACCACAUGAUGAUGCCUGAAGAGCCUUGGUUUUUUG	-3.86
GACCAAUCUGCCCUCAGAGCUCGAGCACAUCUUCGGAUGCAGAGGAGGCAGGCUUCGGUGGCGCGAUACCGCCAACGUCCUCAACCUCCAAUGCAUCCCACCACAUGAUGAUGCCUGAAGAGCCUUGGUUUUUUG	-7.17
GACCAAUCUGCCCUCAGAGCUCGACAACAUCUUCGGAUGCAGAGGAGGCAGGCUUCGGUGACGCGAUAGCGCCAACGUCCUCAACCUCCAAUGCAUCCCACCACAUGAUGAUGCCUGAAGAGCCUUGGUUUUUUG	-4.35
GACCAAUCUGCCCUCAGAGCUCGAGGACAUCUUCGGAUGCAGAGGAGGCAGGGUUCGGUGGCGCGAUAGCGCCAACAUCCUCAACCUCCAAUGCAUCCCACCACAUGAUGAUGCCUGAAGAGCCUUGGUUUUUUG	-2.93
GACCAAUCUGCCCUCAGAGCUCGAUAACAUCUUCGGAUGCAGAGGAGGCAGGCUUCGGUGGCGCGAUAGCGUCAACGUCCUCAACCUCCAAUGCAUCCCACCACAUGAUGAUGCCUGAAGAGCCUUGGUUUUUUG	-6.27
GACCAAUCUGCCCUCAGAGCUCGAGGACAUCUUCGGAUGCAGAGGAGGCAGGAUUUGGUGGCGCGAUAGCGCCAACGUCCUCAACCUCCAAUCCAGCCCACCACAUGAUGAUGCCUGAAGAGCCUUGGUUUUUUG	-4.22
GACCAAUCUGCCCUCAGAGCUCGAGCACAUCUUCGGAUGCAGAGGAGGCAGGCUUCGGUGGCGCGAUAGCGCCAACGUCCUCAACCUCCAAUGCAUCCCACCACAGGAUGAUGCCUGAAGAGCCUUGGUUUUUUG	-6.98
GACCAAUCUGCCCUCAGAGCUCGAGGACAUCUUCGGAUGCAGAGGAGGCAGGCUUCGGUGGCGCGAUAGUGCCAACGUCCUCAACCUCCAAUGCAUCCCACCACAUGAUGAUGCCUGAAGAGCCUUGGUUUUUUG	-2.78
GACCAAUCUGCCCUCAGAGCUCGAGGACAUCUUCGGAUGCAGAGGAGGCGGGCUUGGGUGGCGCGAUAGCGCCAACGUCCUGAACCUCCAAUGCAUCCCACCACAUGAUGAUGCCUGAAGAGCCUUGGUUUUUUG	-3.42
GACCAAUCUGCCCUCAGAGCUCGAUAACAUCUUCGGAUUCAGAUGAGGCAGGCUUCGGUGGCGCGAUAGCGCAAACGUCCUCAACCUCCAAUGCAUCCCACCACAUGAUGAUGCCUGAAGAGCCUUGGUUUUUUG	-6.92
GACCAAUCUGCCCUCAGAGCUCGAGGUCAUCUUCGGAUGCAGAGGAGGCAGGCUUCGGUGGCGCGAUAGCGCCGACGUCCUCAACCUCCAAUGCAUCCCACCACAUGAUGAUGCUUGAAGAGCUUUGGUUUUUUG	-5.7
GACCAAUCUGCCCUCAGAGCUCGAGGACAUCUUCGGAUGCAGAGGAGGCAGGAUUCGGUGGCGCGAUAGCGCCAACGUCCGCAACCUCCAAUGCAUCCCACCACAUGAUGAUGCCUGAAGAGCCUUGGUUUUUUG	-3.49
GACCAAUCUGCCCUCAGAGCUCGACAACGUCUCCGGAUGCAGAGGAGGCAGGCUUCGGUAGCGCGAUAGCGCCAACGUCCUCAACCUCCAAUGCAUCUCACCACAUGAUGAUCCCUGAAGAGCCUUGGUUUUUUG	-7.69
GACCAAUCUGCCCUCAGAGCUCGAGCACAUCUUCGGAUGCAGCGGCGGCAGGCUUGGGUGGCGCGAUAGCGCCAACGUCCUCAACAUCCGAUGCAUCCCACCACAUGAUGAUGCCUGAAGAGGCUUGGUUUUUUG	-6.74
GACCAAUCUGCCCUCAGAGCUCGACAACAUCUUCGGAUGCAGAGGAGGCAGGCUUCGGUGGCUCGAUAGCGCCAACGUCCUCAACCUCCAAUGCAUCCAACCACAUGAUGAUGCAUGAAGAGCCUUGGUUUUUUG	-6.39
GACCAAUCUGCCCUCAGAGCUCGAGCACAUCUUCGGAUGCAGAGGAGGCAGGCUUCGGUGGCGCGAUAGCGCCAACGUCCUCAACCUCCAAAGCAUCCCACCACAUGAUGAUGCCUGAAGAGCCUUGGUUUUUUG	-5.95
GACCAAUCUGCCCUCAGAGCUCGAUAACAUCUUCGGAUGCAGAGGAGGCAGGCUUUGGUGGCGCGAUAGCGGCAACGUCCUCAACCUCCAAUGCAUCCCACCACAUGAUGAUGCCUGAAGAGGCUUGGUUUUUUG	-6.31
GACCAAUCUGCCCUCAGAGCUCGAUAACAUCUUCGGAUGCAGAGGAGGCAGGCUUCGGUGGCGCGAUAGCGCCAAAGUCCUCAACCUCCAAUGCAUCCCACCACAUGAUGAUCCCUGAAGAGCCUUGGUUUUUUG	-5.51
GACCAAUCUGCCCUCAGAGCUCGAGCACAUCUUAGGAUGCAGAGGAGGCAGGCUUAGGUGGCGCGAUAGCGCCAACGUCCUCAACCUCCAAUGGAUCCCACCACAUGAUGUUGCCUGAAGAGCCUUGGUUUUUUG	-7
GACCAAUCUGCCCUCAGAGCUCGAGCCCAUCUUCGGAUGCAGAGGAGGCAGGCUUCGGAGGCGCGAUAGCGUCAACGUCCUCAACCUCCAAUGCAUCCCACCACAUGAUGAUGCCUGAAGAGACUUGGUUUUUUG	-6.08

Variant	polymerase ribozyme fitness (log ratio)
GACCAAUCUGCCCUCAGAGCUCGAUGACAUCUUCGGAUGCAGAGGAGGCAGGCUUCGGUGGCGUGAUAGCGCCAACGUCCUCAACCUCCAAUGCAUCCCACCACAUGAUGAUGCCUGAAGAGCCUUGGUUUUUUG	-2.74
GACCAAUCUGCCCUCAGAGCUCGAUAACAUCUUCGGAUGCAGAGGAGGCAGGCUUCGGUGGCGCGAUAGCGCCAACGUCCUCAACCUCCAAUGCAUCCCACCACAUGAUGAUGCCUGAAGAGCCUUGGUUUUUUG	-5.58
GACCAAUCUGCCCUCAGAGCUCGACAACAUCUUCGGAUGCAGAGGAGGCAGGCUUCGGUGGCGCGAUAGCGCCAACGUCCUCAACCUCCAAUGCAUCCCACCACAUGAUGAUGCCUGAAGAGCCUUGGUUUUUUG	-5.94
GACCAAUCUGCCCUCAGAGCUCGACAACAUCUUCGGAUGCAGAGGAGGCAGGCUUCGGUGGCGCGAUAGGGCCAACGUCCUCAACCUCCAAUGCAUCCCACCACAUAAUGUUGCCUGAAGAGCCUUGGGUUUUUG	-7.14
GACCAAUCUGCCCUCAGAGCUCGAGGACAUCUUCGGAUGCAGAGGAGGCAGGCUUCGGUGGCGCGAUAGCGCCAACGUCCUCAGCCUCCAAUGCAUCCCACCACAUGAUGAUGCCUGAAAAGCCUUGGUUUUUUG	-2.95
GACCAAUCUGCCCUCAGAGCUCGAGGACAUCUUCGGAUGCAGAGGAGGUAGGCUUCGGUGGCACGAUAGCGCCAACGUCCUCACCCUCCAAUGCAUCCCACCACAUGAUGAUGCCUGAAGAGCCUUGGUUUUUUG	-4.24
GACCAAUCUGCCCUCAGAGCUCGACAACAUGUUUGGAUGCAGCGGAGGCAGGCUUCGGUGGCGCGAUAGCGCCAACGUCCUCAACCUCCAAUGCAUCCCACCACAUGAUGACGCCUGAAGAGCCUUGGUUUUUUG	-6.28
GACCAAUCUGCCCUCAGAGCUCGAGCACAUCUUCGGAUGCAGAGGAGGCAGGCUUCGGUGACGCGAUAGCGCCAACGUCCUCAACCUCCAAUGCAACCCACCACAUGAUGAUGCCUGAAGAGCCUUGGUUUUUUG	-5.9
GACCAAUCUGCCCUCAGAGCUCGAGGACAUCUUCGGAUGCAGAGGAGGCAGGCUUCGGUGGUGCGAUAGCGCCAACGUCCUCAACCUCCAAUGCAUCCCACCACAUGAUGAUGCCUGAAGAGCCUUGGUUUUAUG	-4.26
GACCAAUCUGCCCUCAGAGCUCGACAACAUCUUCGGAUGCAGAGGAGGCAGGUUUCGGUGGCGCGAUAGCGCCAACGUCCUCAACCUCCAAUGCAUCCCACCACAUGAUGAUGCCUGAAGAGCCUUGGUUUUUUG	-5.22
GACCAAUCUGCCCUCAGAGCUCGACAACAUCUUCGGAUGCAGAGGAGGCAGGGUUCGGUGGCGCGAUAGCGCCAACGUCCUCAACCUCCAAUGCAUCCCACCACAUGAUGAUGCCUGAAGAGCCUUGGUUUUUUG	-6.8
GACCAAUCUGCCCUCAGAGCUCGAUAACAUCUUCGGAUGCAGAGGAGGCAGGCUUGGGUGGCGCGAUAGCGCCAACGUCCGCAACCUCCAAUGCAUCCCACCACAUGAUGAUGCCUGAAGGGCUUUGGUUUUUUG	-5.96
GACCAAUCUGCCCUCAGAGCUCGACGAAAUCUUCGGAUGCAGAGGAGGCAGGCUUCGGUGGCGCGAUAGCGACAACGUCCUCAACCUCCAAUGCAUCCCACCACAUGAUAAUGCCUGAAGAGCCUUGGUUUUUUG	-5.56
GACCAAUCUGCCCUCAGAGCUCGAGCACAUCUUCGGAUGCAGAGGAGGCAGGCUUCGGUGGCGCGAUAGCGCCAACGUCCUCAACCUCCAAUGCAUCCCACCACAUGAUGAUGCCUGAAGAGCCUUGGUUUUUUG	-6.07
GACCAAUCUGCCCUCAGAGCUCGAGGACAUCUUCGGAUGCAGAGGAGGCAGGCUUCGGUGGCGCGAUAGCGCCAACGUCCUCAACCUCCAAUGCAUCCCACCACAUGAUGAUGCCUGAAGAGCCUUGGUUUUUUG	-1.67
GACCAAUCUGCCCUCAGAGCUCGAGGACAUCUUCGGAUGCAGUGGAGGCAGGCUUCGGUGGCGCGAUAUCGCCAACGUCCUCAACCUCCAAUGCAUCCCACCACAUGAUGAAGCCUGAAGAGCCUUGGUUUUUUG	-0.179
GACCAAUCUGCCCUCAGAGCUCGAGGACAUCUUCGGAUGCAGAGGAGGCAGGCUUCGGUGGCGCGAUAGCGCAAACGUCCUCAACCUCCAAUGCAUCCCACCACAUGAUGAUGCCUGAAGAGCCUUGGUUUUUUG	-1.78
GACCAAUCUGCCCUCAGAGCUCGAGCACAUCUUCGGAUGCAGAGGAGGCAGGCGUCGGUGGCGCGAUAGAGCCAACGUCCUCAACCUCCAAUGCAUCCCACCACAUGAGGAUGCCUGAAGAGCCUUGGUUUUUUG	-5.98
GACCAAUCUGCCCUCAGAGCUCGAUAACAUCUUUGGAUGCAGAGGAGGCAGGCUUCGGUGGCCCGAUAGCGCCAACGUCCUCAACCUCCAAUCCAUCCCACCACAUGAUGAUGCCUCAAGCACCUUUGUUUUUUG	-6.74
GACCAAUCUGCCCUCAGAGCUCGAGGACAUCUUCGGAUGCAGAGGAGGCAGGCUUCGGUGGAGCGAUAGCGCCAACGUCCUUAACCUCCAAUGCAUCCCACCACAUGAUGAUGCCUGAAGAGCCUUGGUUUUUUG	-3.78
GACCAAUCUGCCCUCAGAGCUCGAGCACGUCUUCGGAUGCAGAGGAGGCAGGCUUCGGUGGCGCGAUAGCGCCAACGUCCUCAACCUCCAAUGCAUCCCACCACAUGAUGAGGCCUGAAGAGCCUUGGUUUUUUG	-7.05
